Experimental data: article PMC9482650, “Quantitative fragmentomics allow affinity mapping of interactomes” (Nature Communications, 2022)

How the values were obtained:
Assay in all cases: holdup assay
Design in all cases: key: below the threshold = too weak to quantify, mostly under pKd 3.1 to 4
[1] = target: GIPC2, Q8TF65
[2] = target: T1, PTPN13_1, Q12923
T1 sequence (Q12923 1088-1188, limits assumed, looked up): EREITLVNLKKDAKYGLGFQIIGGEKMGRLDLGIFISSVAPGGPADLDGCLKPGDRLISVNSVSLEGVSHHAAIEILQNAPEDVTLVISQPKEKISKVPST

[3] = target: Inadl_2, Q8NI35
[4] = target: DLG2_3, Q15700
[5] = target: GORASP1, Q9BQQ3
[6] = target: FRMPD2_2, Q68DX3
[7] = target: MAGI2_6, Q86UL8
[8] = target: Inadl_1, Q8NI35
[9] = target: T2, APBA2_1, Q99767
T2 sequence (Q99767 563-664, limits assumed, looked up): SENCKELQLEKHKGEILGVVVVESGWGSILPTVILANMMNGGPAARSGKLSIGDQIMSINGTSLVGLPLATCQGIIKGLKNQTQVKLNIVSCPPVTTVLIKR

[10] = target: T3, DFNB31_3, Q9P202
T3 sequence (Q9P202 811-907, limits assumed, looked up): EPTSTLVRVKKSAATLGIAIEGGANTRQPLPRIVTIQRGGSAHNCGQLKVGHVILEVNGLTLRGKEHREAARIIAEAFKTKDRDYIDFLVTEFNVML

[11] = target: T4, APBA3_1, O96018
T4 sequence (O96018 389-490, limits assumed, looked up): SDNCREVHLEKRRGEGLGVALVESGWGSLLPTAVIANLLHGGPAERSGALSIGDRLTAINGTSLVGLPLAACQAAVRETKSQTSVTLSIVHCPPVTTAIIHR

[12] = target: SCRIB_2, Q14160
[13] = target: T5, TJP3_3, O95049
T5 sequence (O95049 375-456, limits assumed, looked up): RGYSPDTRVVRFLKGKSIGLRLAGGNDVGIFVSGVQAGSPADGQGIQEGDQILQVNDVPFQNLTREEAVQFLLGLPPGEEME

[14] = target: PTPN3, P26045
[15] = target: T6, SNTB1, Q13884
T6 sequence (Q13884 107-205, limits assumed, looked up): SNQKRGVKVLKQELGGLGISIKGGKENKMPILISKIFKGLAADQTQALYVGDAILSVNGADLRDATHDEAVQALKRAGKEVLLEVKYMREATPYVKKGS

[16] = target: GRIP2_7, Q9C0E4
[17] = target: T7, PDZD7_3, Q9H5P4
T7 sequence (Q9H5P4 857-944, limits assumed, looked up): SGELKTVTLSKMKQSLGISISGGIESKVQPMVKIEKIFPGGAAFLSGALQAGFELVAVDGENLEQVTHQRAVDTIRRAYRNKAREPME

[18] = target: DLG4_2, P78352
[19] = target: NHERF4_2, Q86UT5
[20] = target: T8, GRIP1_2, Q9Y3R0
T8 sequence (Q9Y3R0 145-248, limits assumed, looked up): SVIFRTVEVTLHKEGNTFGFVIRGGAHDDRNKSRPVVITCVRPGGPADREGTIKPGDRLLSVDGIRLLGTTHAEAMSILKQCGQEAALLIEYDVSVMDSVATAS

[21] = target: T9, PDZRN3_1, Q9UPQ7
T9 sequence (Q9UPQ7 244-349, limits assumed, looked up): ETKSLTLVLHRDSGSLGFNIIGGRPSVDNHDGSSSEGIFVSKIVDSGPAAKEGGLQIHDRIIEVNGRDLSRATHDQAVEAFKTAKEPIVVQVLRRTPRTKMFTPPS

[22] = target: PDZRN4_1, Q6ZMN7
[23] = target: PICK1, Q9NRD5
[24] = target: T10, SYNJ2BP, P57105
T10 sequence (P57105 8-110, limits assumed, looked up): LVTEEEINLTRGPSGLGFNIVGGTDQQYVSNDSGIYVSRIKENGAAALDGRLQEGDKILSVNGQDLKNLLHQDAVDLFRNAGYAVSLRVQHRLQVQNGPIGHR

[25] = target: T11, TIAM2, Q8IVF5
T11 sequence (Q8IVF5 885-986, limits assumed, looked up): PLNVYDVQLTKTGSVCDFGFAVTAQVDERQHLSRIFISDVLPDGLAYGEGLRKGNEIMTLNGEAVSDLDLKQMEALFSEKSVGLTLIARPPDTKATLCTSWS

[26] = target: FRMPD2_3, Q68DX3
[27] = plain residues with an end cap or a label only (N-terminal biotin on a linker: ttds)
[28] = plain residues with an end cap or a label only (N-terminal biotin on a linker: ahx)

FRMPD2_2, Q68DX3, sequence (Q68DX3 944-1038): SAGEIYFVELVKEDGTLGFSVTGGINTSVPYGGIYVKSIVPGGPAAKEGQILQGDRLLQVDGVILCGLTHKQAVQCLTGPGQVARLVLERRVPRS
PTPN3, P26045, sequence (P26045 505-587): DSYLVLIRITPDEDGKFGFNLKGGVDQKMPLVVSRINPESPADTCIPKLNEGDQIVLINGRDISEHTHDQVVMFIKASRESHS
PICK1, Q9NRD5, sequence (Q9NRD5 17-115): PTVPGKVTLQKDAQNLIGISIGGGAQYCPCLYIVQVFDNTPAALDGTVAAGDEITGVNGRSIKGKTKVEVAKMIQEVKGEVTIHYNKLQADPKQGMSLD
PDZRN4_1, Q6ZMN7, sequence (Q6ZMN7 213-318): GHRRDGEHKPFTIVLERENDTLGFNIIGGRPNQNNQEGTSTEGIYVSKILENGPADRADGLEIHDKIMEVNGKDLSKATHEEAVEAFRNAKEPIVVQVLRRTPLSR
SCRIB_2, Q14160, sequence (Q14160 857-960): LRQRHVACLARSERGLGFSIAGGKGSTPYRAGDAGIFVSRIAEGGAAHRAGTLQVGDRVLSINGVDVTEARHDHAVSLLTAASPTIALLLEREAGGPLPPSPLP
NHERF4_2, Q86UT5, sequence (Q86UT5 220-308): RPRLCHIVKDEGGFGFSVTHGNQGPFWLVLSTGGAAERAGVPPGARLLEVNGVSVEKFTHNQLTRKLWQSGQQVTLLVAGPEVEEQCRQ
GIPC2, Q8TF65, sequence (Q8TF65 112-203): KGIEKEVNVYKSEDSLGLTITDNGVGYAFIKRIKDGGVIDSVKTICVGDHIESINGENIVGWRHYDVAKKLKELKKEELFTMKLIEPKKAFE
Inadl_2, Q8NI35, sequence (Q8NI35 238-335): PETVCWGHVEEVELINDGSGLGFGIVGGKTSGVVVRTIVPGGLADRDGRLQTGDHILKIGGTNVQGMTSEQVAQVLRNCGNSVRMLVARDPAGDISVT
GRIP2_7, Q9C0E4, sequence (Q9C0E4 934-1023): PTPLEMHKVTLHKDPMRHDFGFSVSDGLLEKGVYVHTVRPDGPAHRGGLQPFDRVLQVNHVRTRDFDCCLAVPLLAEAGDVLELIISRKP
DLG4_2, P78352, sequence (P78352 155-259): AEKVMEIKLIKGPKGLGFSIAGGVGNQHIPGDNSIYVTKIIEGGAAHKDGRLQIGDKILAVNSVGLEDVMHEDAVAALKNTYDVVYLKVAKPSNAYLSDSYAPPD
MAGI2_6, Q86UL8, sequence (Q86UL8 1141-1229): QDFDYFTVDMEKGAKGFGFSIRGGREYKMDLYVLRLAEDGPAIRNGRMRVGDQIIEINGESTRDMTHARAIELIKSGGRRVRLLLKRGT
GORASP1, Q9BQQ3, sequence (Q9BQQ3 1-208): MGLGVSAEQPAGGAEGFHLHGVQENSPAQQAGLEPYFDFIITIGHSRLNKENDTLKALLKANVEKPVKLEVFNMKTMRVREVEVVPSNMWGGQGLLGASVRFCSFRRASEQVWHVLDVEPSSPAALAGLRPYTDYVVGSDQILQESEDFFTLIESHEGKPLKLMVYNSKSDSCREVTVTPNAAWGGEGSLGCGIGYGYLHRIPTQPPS
FRMPD2_3, Q68DX3, sequence (Q68DX3 1073-1166): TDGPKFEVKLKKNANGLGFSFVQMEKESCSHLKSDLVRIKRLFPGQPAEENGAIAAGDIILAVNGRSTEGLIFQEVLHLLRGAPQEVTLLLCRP
Inadl_1, Q8NI35, sequence (Q8NI35 113-229): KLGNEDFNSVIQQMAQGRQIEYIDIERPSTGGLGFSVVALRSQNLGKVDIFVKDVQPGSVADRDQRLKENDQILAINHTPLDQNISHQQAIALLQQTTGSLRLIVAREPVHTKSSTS

SHSSKGETAV [FZD7, O75084]
pKd [1, 27]: 3.62
pKd [2, 27]: below the threshold
pKd [3, 27]: below the threshold
pKd [4, 27]: 4.32
pKd [5, 27]: 3.48
pKd [6, 27]: 3.81
pKd [7, 27]: 4.43
pKd [8, 27]: below the threshold
pKd [9, 27]: below the threshold
pKd [10, 27]: below the threshold
pKd [11, 27]: below the threshold
pKd [12, 27]: 4.58
pKd [13, 27]: below the threshold
pKd [14, 27]: 4.84
pKd [15, 27]: 4.49
pKd [16, 27]: below the threshold
pKd [17, 27]: 3.86
pKd [18, 27]: 4.69
pKd [19, 27]: below the threshold
pKd [20, 27]: below the threshold
pKd [21, 27]: 4.51
pKd [22, 27]: 4.3
pKd [23, 27]: below the threshold
pKd [24, 27]: 5.08
pKd [25, 27]: below the threshold
pKd [26, 27]: 3.46

PKMKLNETSF [SHKBP1, Q8TBC3]
pKd [1, 28]: below the threshold
pKd [2, 28]: below the threshold
pKd [3, 28]: below the threshold
pKd [4, 28]: below the threshold
pKd [5, 28]: below the threshold
pKd [6, 28]: below the threshold
pKd [7, 28]: 3.54
pKd [8, 28]: below the threshold
pKd [9, 28]: below the threshold
pKd [10, 28]: below the threshold
pKd [11, 28]: below the threshold
pKd [12, 28]: below the threshold
pKd [13, 28]: below the threshold
pKd [14, 28]: 4.68
pKd [15, 28]: below the threshold
pKd [16, 28]: below the threshold
pKd [17, 28]: below the threshold
pKd [18, 28]: below the threshold
pKd [19, 28]: below the threshold
pKd [20, 28]: below the threshold
pKd [21, 28]: below the threshold
pKd [22, 28]: below the threshold
pKd [23, 28]: below the threshold
pKd [24, 28]: below the threshold
pKd [25, 28]: below the threshold
pKd [26, 28]: below the threshold

YNSFLSVTTV [PDZRN3, Q9UPQ7]
pKd [1, 28]: below the threshold
pKd [2, 28]: below the threshold
pKd [3, 28]: below the threshold
pKd [4, 28]: 4.06
pKd [5, 28]: 3.8
pKd [6, 28]: 3.73
pKd [7, 28]: 3.6
pKd [8, 28]: 3.82
pKd [9, 28]: below the threshold
pKd [10, 28]: 3.51
pKd [11, 28]: below the threshold
pKd [12, 28]: 3.69
pKd [13, 28]: below the threshold
pKd [14, 28]: 3.48
pKd [15, 28]: 3.72
pKd [16, 28]: below the threshold
pKd [17, 28]: 5.58
pKd [18, 28]: 4.15
pKd [19, 28]: below the threshold
pKd [20, 28]: below the threshold
pKd [21, 28]: below the threshold
pKd [22, 28]: below the threshold
pKd [23, 28]: below the threshold
pKd [24, 28]: below the threshold
pKd [25, 28]: below the threshold
pKd [26, 28]: below the threshold

PFRSRSPSEV [GPR6, P46095]
pKd [1, 27]: below the threshold
pKd [2, 27]: below the threshold
pKd [3, 27]: below the threshold
pKd [4, 27]: 3.68
pKd [5, 27]: below the threshold
pKd [6, 27]: below the threshold
pKd [7, 27]: below the threshold
pKd [8, 27]: below the threshold
pKd [9, 27]: below the threshold
pKd [10, 27]: below the threshold
pKd [11, 27]: below the threshold
pKd [12, 27]: below the threshold
pKd [13, 27]: below the threshold
pKd [14, 27]: 3.95
pKd [15, 27]: below the threshold
pKd [16, 27]: below the threshold
pKd [17, 27]: below the threshold
pKd [18, 27]: 3.75
pKd [19, 27]: below the threshold
pKd [20, 27]: 3.52
pKd [21, 27]: below the threshold
pKd [22, 27]: 3.57
pKd [23, 27]: below the threshold
pKd [24, 27]: 4.18
pKd [25, 27]: below the threshold
pKd [26, 27]: below the threshold
